# In the supplement of paper PMC10567573:
# B1: KRT13 (parent)
# chain: TSSASVTTTSNASGRRTSDVRRP
# B2: PTPN9 (parent)
# chain: TQHLPRECLPENLGGYVKIDLATW
# Variants of: B1
# Test: protein stability index of a GFP-peptide fusion (GPS, HEK-293T) (PSI 1-6); higher = more stable
# Conditions: c terminus: native
# 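Note: lentivirally expressed fusions sorted by FACS into six bins by GFP to DsRed ratio, PSI derived from sequencing read proportions per bin multiplied by bin number.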
row,Variant,protein stability index
1,NSSASVTTTSNASGRRTSDVRRP,1.34
2,DSSASVTTTSNASGRRTSDVRRP,2.46
3,VSSASVTTTSNASGRRTSDVRRP,2.42
4,ASSASVTTTSNASGRRTSDVRRP,3.56
5,QSSASVTTTSNASGRRTSDVRRP,2.54
6,YSSASVTTTSNASGRRTSDVRRP,3.12
7,FSSASVTTTSNASGRRTSDVRRP,4.09
8,ESSASVTTTSNASGRRTSDVRRP,2.33
9,ISSASVTTTSNASGRRTSDVRRP,2.25
10,HSSASVTTTSNASGRRTSDVRRP,2.22
11,WSSASVTTTSNASGRRTSDVRRP,2.43
12,TSIASVTTTSNASGRRTSDVRRP,2.32
13,TSLASVTTTSNASGRRTSDVRRP,1.99
14,TSHASVTTTSNASGRRTSDVRRP,2.54
15,TSVASVTTTSNASGRRTSDVRRP,1.93
16,TSGASVTTTSNASGRRTSDVRRP,3.79
17,TSKASVTTTSNASGRRTSDVRRP,2.86
18,TSQASVTTTSNASGRRTSDVRRP,2.19
19,TSDASVTTTSNASGRRTSDVRRP,2.57

row,Variant,protein stability index
1,TSEASVTTTSNASGRRTSDVRRP,2.8
2,TSAASVTTTSNASGRRTSDVRRP,2.61
3,TSTASVTTTSNASGRRTSDVRRP,1.81
4,TSYASVTTTSNASGRRTSDVRRP,1.46
5,TSWASVTTTSNASGRRTSDVRRP,1.65
6,TSCASVTTTSNASGRRTSDVRRP,1.96
7,TYSASVTTTSNASGRRTSDVRRP,2.08
8,TPSASVTTTSNASGRRTSDVRRP,3.07
9,TDSASVTTTSNASGRRTSDVRRP,2.46
10,TLSASVTTTSNASGRRTSDVRRP,2.02
11,TVSASVTTTSNASGRRTSDVRRP,3.9
12,TTSASVTTTSNASGRRTSDVRRP,2.82
13,TNSASVTTTSNASGRRTSDVRRP,3.25
14,TQSASVTTTSNASGRRTSDVRRP,1.06
15,TKSASVTTTSNASGRRTSDVRRP,3.48
16,TFSASVTTTSNASGRRTSDVRRP,2.04
17,TGSASVTTTSNASGRRTSDVRRP,2.56
18,TESASVTTTSNASGRRTSDVRRP,3.22

# Variants of: B2
# Test: as above
# Conditions: c terminus: a fixed tail appended
row,Variant,protein stability index
1,TQHLPRECLPENLGGYVKIDLATM,2.05
2,TQHLPRECLPENLGGYVKIDLATC,2.28
3,TQHLPRECLPENLGGYVKIDLATV,2.06
4,TQHLPRECLPENLGGYVKIDLATY,1.91
5,TQHLPRECLPENLGGYVKIDLATH,2.66
6,TQHLPRECLPENLGGYVKIDLATE,4.07
7,TQHLPRECLPENLGGYVKIDLATN,3.51
8,TQHLPRECLPENLGGYVKIDLATG,3.38
9,TQHLPRECLPENLGGYVKIDLATS,3.06
10,TQHLPRECLPENLGGYVKIDLATK,3.59
11,TQHLPRECLPENLGGYVKIDLATP,2.86
12,TQHLPRECLPENLGGYVKIDLATA,2.84
13,TQHLPRECLPENLGGYVKIDLATT,3
14,TQHLPRECLPENLGGYVKIDLATL,2.12
15,TQHLPRECLPENLGGYVKIDLATD,3.88
16,TQHLPRECLPENLGGYVKIDLATF,1.8
17,TQHLPRECLPENLGGYVKIDLATQ,3.13
18,TQHLPRECLPENLGGYVKIDLATI,1.94
19,TQHLPRECLPENLGGYVKIDLATR,2.61
20,TQHLPRECLPENLGGYVKPDLATW,3.11
21,TQHLPRECLPENLGGYVKTDLATW,2.94
22,TQHLPRECLPENLGGYVKFDLATW,1.79
23,TQHLPRECLPENLGGYVKVDLATW,2.12
24,TQHLPRECLPENLGGYVKYDLATW,2.46
25,TQHLPRECLPENLGGYVKGDLATW,3.3
26,TQHLPRECLPENLGGYVKRDLATW,2.96

row,Variant,protein stability index
1,TQHLPRECLPENLGGYVKHDLATW,2.5
2,TQHLPRECLPENLGGYVKMDLATW,2.79
3,TQHLPRECLPENLGGYVKADLATW,2.86
4,TQHLPRECLPENLGGYVKWDLATW,2.46
5,TQHLPRECLPENLGGYVKDDLATW,3.07
6,TQHLPRECLPENLGGYVKQDLATW,3.04
7,TQHLPRECLPENLGGYVKCDLATW,2.3
8,TQHLPRECLPENLGGYVKNDLATW,2.67
9,TQHLPRECLPENLGGYVKKDLATW,3.08
10,TQHLPRECLPENLGGYVKSDLATW,2.76
11,TQHLPRECLPENLGGYVKEDLATW,3.58
12,TQHLPRECLPENLGGYVKLDLATW,2.06
13,TQHLPRECLPENLGGYVKIDLRTW,1.23
14,TQHLPRECLPENLGGYVKIDLVTW,2.08
15,TQHLPRECLPENLGGYVKIDLLTW,3.29
16,TQHLPRECLPENLGGYVKIDLPTW,2.49
17,TQHLPRECLPENLGGYVKIDLMTW,1.65
18,TQHLPRECLPENLGGYVKIDLSTW,1.72
19,TQHLPRECLPENLGGYVKIDLNTW,2.35
20,TQHLPRECLPENLGGYVKIDLYTW,2.21
21,TQHLPRECLPENLGGYVKIDLITW,1.87
22,TQHLPRECLPENLGGYVKIDLCTW,1.92
23,TQHLPRECLPENLGGYVKIDLWTW,2.09
24,TQHLPRECLPENLGGYVKIDLKTW,2.08
25,TQHLPRECLPENLGGYVKIDLGTW,1.64
26,TQHLPRECLPENLGGYVKIDLHTW,1.78

row,Variant,protein stability index
1,TQHLPRECLPENLGGYVKIDLQTW,2.01
2,TQHLPRECLPENLGGYVKIDLDTW,3.18
3,TQHLPRECLPENLGGYVKIDLTTW,1.9
4,TQHLPRECLPENLGGYVKIDLETW,2.35
5,TQHLPRECLPENLGGYVKIDLFTW,2.43
6,TQHLPRECLPENLGGYVKIDLALW,1.76
7,TQHLPRECLPENLGGYVKIDLAMW,1.83
8,TQHLPRECLPENLGGYVKIDLAHW,2.09
9,TQHLPRECLPENLGGYVKIDLAVW,3.6
10,TQHLPRECLPENLGGYVKIDLAYW,1.71
11,TQHLPRECLPENLGGYVKIDLACW,1.38
12,TQHLPRECLPENLGGYVKIDLAWW,2.94
13,TQHLPRECLPENLGGYVKIDLAPW,1.99
14,TQHLPRECLPENLGGYVKIDLAQW,2.58
15,TQHLPRECLPENLGGYVKIDLARW,1.89
16,TQHLPRECLPENLGGYVKIDLANW,2.06
17,TQHLPRECLPENLGGYVKIDLASW,2.02
18,TQHLPRECLPENLGGYVKIDLAGW,1.9
19,TQHLPRECLPENLGGYVKIDLADW,2.37
20,TQHLPRECLPENLGGYVKIDLAIW,2.02
21,TQHLPRECLPENLGGYVKIDLAAW,1.83
22,TQHLPRECLPENLGGYVKIDLAKW,2.38
23,TQHLPRECLPENLGGYVKIDLAEW,2.73
24,TQHLPRECLPENLGGYVKIDLAFW,2.17
25,TQHLPRECLPENLGGYVKIKLATW,1.94
26,TQHLPRECLPENLGGYVKICLATW,1.94

row,Variant,protein stability index
1,TQHLPRECLPENLGGYVKIPLATW,1.69
2,TQHLPRECLPENLGGYVKIALATW,2.07
3,TQHLPRECLPENLGGYVKIILATW,2.01
4,TQHLPRECLPENLGGYVKILLATW,1.66
5,TQHLPRECLPENLGGYVKITLATW,2.51
6,TQHLPRECLPENLGGYVKINLATW,1.78
7,TQHLPRECLPENLGGYVKIRLATW,1.9
8,TQHLPRECLPENLGGYVKIWLATW,3.09
9,TQHLPRECLPENLGGYVKISLATW,1.92
10,TQHLPRECLPENLGGYVKIMLATW,1.69
11,TQHLPRECLPENLGGYVKIGLATW,1.78
12,TQHLPRECLPENLGGYVKIVLATW,2.73
13,TQHLPRECLPENLGGYVKIQLATW,1.6
14,TQHLPRECLPENLGGYVKIELATW,1.67
15,TQHLPRECLPENLGGYVKIYLATW,2.68
16,TQHLPRECLPENLGGYVKIFLATW,2.58
17,TQHLPRECLPENLGGYVKIHLATW,2.68
18,TQHLPRECLPENLGGYIKIDLATW,2.24
19,TQHLPRECLPENLGGYMKIDLATW,2.01
20,TQHLPRECLPENLGGYTKIDLATW,2.36
21,TQHLPRECLPENLGGYYKIDLATW,1.95
22,TQHLPRECLPENLGGYDKIDLATW,3.24
23,TQHLPRECLPENLGGYCKIDLATW,1.89
24,TQHLPRECLPENLGGYSKIDLATW,2.57
25,TQHLPRECLPENLGGYNKIDLATW,2.36
26,TQHLPRECLPENLGGYGKIDLATW,2.57

row,Variant,protein stability index
1,TQHLPRECLPENLGGYFKIDLATW,1.77
2,TQHLPRECLPENLGGYWKIDLATW,1.89
3,TQHLPRECLPENLGGYKKIDLATW,3.12
4,TQHLPRECLPENLGGYHKIDLATW,2.29
5,TQHLPRECLPENLGGYAKIDLATW,2.57
6,TQHLPRECLPENLGGYRKIDLATW,2
7,TQHLPRECLPENLGGYLKIDLATW,1.48
8,TQHLPRECLPENLGGYQKIDLATW,2.5
9,TQHLPRECLPENLGGYEKIDLATW,2.85
10,TQHLPRECLPENLGGYPKIDLATW,2.2
11,TQHLPRECLPENLGGYVKIDGATW,2.85
12,TQHLPRECLPENLGGYVKIDDATW,3.46
13,TQHLPRECLPENLGGYVKIDVATW,2.36
14,TQHLPRECLPENLGGYVKIDYATW,1.97
15,TQHLPRECLPENLGGYVKIDWATW,1.76
16,TQHLPRECLPENLGGYVKIDSATW,2.73
17,TQHLPRECLPENLGGYVKIDCATW,2.06
18,TQHLPRECLPENLGGYVKIDMATW,1.88
19,TQHLPRECLPENLGGYVKIDRATW,2.97
20,TQHLPRECLPENLGGYVKIDKATW,3.35
21,TQHLPRECLPENLGGYVKIDIATW,1.65
22,TQHLPRECLPENLGGYVKIDFATW,1.76
23,TQHLPRECLPENLGGYVKIDPATW,2.78
24,TQHLPRECLPENLGGYVKIDTATW,2.27
25,TQHLPRECLPENLGGYVKIDHATW,2.17
26,TQHLPRECLPENLGGYVKIDAATW,2.09

row,Variant,protein stability index
1,TQHLPRECLPENLGGYVKIDQATW,2.96
2,TQHLPRECLPENLGGYVKIDEATW,3.27
3,TQHLPRECLPENLGGYVKIDNATW,2.63
4,TQHLPRECLPENLGGYVTIDLATW,1.91
5,TQHLPRECLPENLGGYVDIDLATW,3.51
6,TQHLPRECLPENLGGYVHIDLATW,1.79
7,TQHLPRECLPENLGGYVVIDLATW,3.3
8,TQHLPRECLPENLGGYVRIDLATW,1.4
9,TQHLPRECLPENLGGYVQIDLATW,1.97
10,TQHLPRECLPENLGGYVWIDLATW,2.43
11,TQHLPRECLPENLGGYVGIDLATW,1.93
12,TQHLPRECLPENLGGYVIIDLATW,2.12
13,TQHLPRECLPENLGGYVFIDLATW,3.63
14,TQHLPRECLPENLGGYVPIDLATW,2.19
15,TQHLPRECLPENLGGYVSIDLATW,1.97
16,TQHLPRECLPENLGGYVMIDLATW,1.73
17,TQHLPRECLPENLGGYVYIDLATW,1.91
18,TQHLPRECLPENLGGYVLIDLATW,2.52
19,TQHLPRECLPENLGGYVCIDLATW,1.49
20,TQHLPRECLPENLGGYVEIDLATW,1.93
21,TQHLPRECLPENLGGYVAIDLATW,2
22,TQHLPRECLPENLGGYVNIDLATW,2.18
